Drawing on US20260117274A1, “ORTHOGONALLY CROSSLINKED PROTEINS, METHODS OF MAKING, AND USES THEREOF” (The Research Foundation for The State University of New York, priority 2022, published 2026), this text covers X-linking yield for 14 molecules.

Sequences and labels used below:
B1: NSa1(+10)-A13BeLaK-C95: supercharged NSa1 monobody encoding BeLaK, C-terminal Cys; SEQ. ID. NO: 22 (protein)
chain: MGSSHHHHHHSSGTENLYFQGVSSKPTKLRVVRXTPTSLKIKWDAPAKTVDYYVITYGETGRGGYAWQRFEVPGSKRTATIKGLKPGVDYTITVYAGYKGYPTYYSSPISINYRTC
modifications: BeLaK at position 13; C-terminal Cys; MOD_RES 34 X is N6-(2-Oxoazetidine-1-carbonyl)-L-lysine
notes: supercharged NSa1 monobody encoding BeLaK, C-terminal Cys; ID; NO: 22
B2: NSa1(+7)-A13BeLaK: supercharged NSa1 monobody encoding BeLaK; SEQ. ID. NO: 11 (protein)
chain: MGSSHHHHHHSSGTENLYFQGVSSKPTKLRVVRXTPTSLKIKWDAPAVTVDYYVITYGEKGRGGYAWQEFEVPGSKRTATISGLKPGVDYTITVYAGYKGYPTYYSSPISINYRT
modifications: BeLaK non-natural residue at position 13; MOD_RES 34 X is N6-(2-Oxoazetidine-1-carbonyl)-L-lysine
notes: supercharged NSa1 monobody encoding BeLaK; ID; NO: 11
B3: NSa1(+5)-A13BeLaK-Y92K: supercharged NSa1 monobody encoding BeLaK; SEQ. ID. NO: 7 (protein)
chain: B2 chain with K42S, R62S, Y113K
modifications: BeLaK non-natural residue at position 13; MOD_RES 34 X is N6-(2-Oxoazetidine-1-carbonyl)-L-lysine
notes: supercharged NSa1 monobody encoding BeLaK; ID; NO: 7
B4: NSa1(+5)-A13BeLaK: supercharged NSa1 monobody encoding BeLaK; SEQ. ID. NO: 6 (protein)
chain: B2 chain with K42S, R62S
modifications: BeLaK non-natural residue at position 13; MOD_RES 34 X is N6-(2-Oxoazetidine-1-carbonyl)-L-lysine
notes: supercharged NSa1 monobody encoding BeLaK; ID; NO: 6
B5: NSa1(+10)-A13BeLaK: supercharged NSa1 monobody encoding BeLaK; SEQ. ID. NO: 14 (protein)
chain: B2 chain with V48K, K60T, E69R, S82K
modifications: BeLaK non-natural residue at position 13; MOD_RES 34 X is N6-(2-Oxoazetidine-1-carbonyl)-L-lysine
notes: supercharged NSa1 monobody encoding BeLaK; ID; NO: 14
B6: NSa1(+10)-A13BeLaK-C1: supercharged NSa1 monobody encoding BeLaK, N-terminal Cys; SEQ. ID. NO: 15 and 23 (protein)
chain 1: MGSSHHHHHHSSGTENLYFQGCVSSKPTKLRVVRXTPTSLKIKWDAPAKTVDYYVITYGETGRGGYAWQRFEVPGSKRTATIKGLKPGVDYTITVYAGYKGYPTYYSSPISINYRT
chain 2: B6 chain 1
modifications: BeLaK at position 13; N-terminal Cys; MOD_RES 35 X is N6-(2-Oxoazetidine-1-carbonyl)-L-lysine
notes: supercharged NSa1 monobody encoding BeLaK, N-terminal Cys; ID; NO: 15 and 23
B7: NSa1(+7)-A13BeLaK-Y92K-C1: supercharged NSa1 monobody encoding BeLaK; SEQ. ID. NO: 12 (protein)
chain: B6 chain 1 with K49V, T61K, R70E, K83S, Y114K
modifications: BeLaK at position 13; N-terminal Cys; MOD_RES 35 X is N6-(2-Oxoazetidine-1-carbonyl)-L-lysine
notes: supercharged NSa1 monobody encoding BeLaK; ID; NO: 12
B8: NSa1(+5)-A13BeLaK-Y92K-C1: supercharged NSa1 monobody encoding BeLaK; SEQ. ID. NO: 9 (protein)
chain: B6 chain 1 with K43S, K49V, T61K, R63S, R70E, K83S, Y114K
modifications: BeLaK at position 13; N-terminal Cys; MOD_RES 35 X is N6-(2-Oxoazetidine-1-carbonyl)-L-lysine
notes: supercharged NSa1 monobody encoding BeLaK; ID; NO: 9
B9: NSa1(+17)-A13BeLaK-Y92K-C1: supercharged NSa1 monobody encoding BeLaK; SEQ. ID. NO: 20 (protein)
chain: B6 chain 1 with S24K, K43S, D45K, A48K, E60K, R63S, E72R, T81K, Y114K
modifications: BeLaK at position 13; N-terminal Cys; MOD_RES 35 X is N6-(2-Oxoazetidine-1-carbonyl)-L-lysine
notes: supercharged NSa1 monobody encoding BeLaK; ID; NO: 20
B10: NSa1(+10)-A13BeLaK-Y92K-C1: supercharged NSa1 monobody encoding BeLaK; SEQ. ID. NO: 16 (protein)
chain: B6 chain 1 with Y114K
modifications: BeLaK at position 13; N-terminal Cys; MOD_RES 35 X is N6-(2-Oxoazetidine-1-carbonyl)-L-lysine
notes: supercharged NSa1 monobody encoding BeLaK; ID; NO: 16
B11: NSa1(+17)-A13BeLaK: supercharged NSa1 monobody encoding BeLaK; SEQ. ID. NO: 18 (protein)
chain: MGSSHHHHHHSSGTENLYFQGVKSKPTKLRVVRXTPTSLKISWKAPKKTVDYYVITYGKTGSGGYAWQRFRVPGSKRTAKIKGLKPGVDYTITVYAGYKGYPTYYSSPISINYRT
modifications: BeLaK non-natural residue at position 13; MOD_RES 34 X is N6-(2-Oxoazetidine-1-carbonyl)-L-lysine
notes: supercharged NSa1 monobody encoding BeLaK; ID; NO: 18
B12: NSa1(+17)-A13BeLaK-Y92K: supercharged NSa1 monobody encoding BeLaK; SEQ. ID. NO: 19 (protein)
chain: B11 chain with Y113K
modifications: BeLaK non-natural residue at position 13; MOD_RES 34 X is N6-(2-Oxoazetidine-1-carbonyl)-L-lysine
notes: supercharged NSa1 monobody encoding BeLaK; ID; NO: 19
B13: 12VC1(+8)-A13BeLaK-Y92K: monobody 12VC1(+8) encoding BeLaK; SEQ. ID. NO: 2 (protein)
chain: MGSSHHHHHHSSGTENLYFQGVSSVPTKLKVVAXTPTSLLISWDAPAVTVFFYVITYGETGHGVGAFKAFKVPGSKSTATISGLKPGVDYTITVYARGYSKKGPYKPSPISINKRT
modifications: BeLaK non-natural residue at position 13; VARIANT 34 X is Ne-(tert-butoxycarbonyl) lysine or N6-(2-Oxoazetidine-1-carbonyl)-L-lysine
notes: monobody 12VC1(+8) encoding BeLaK; ID; NO: 2
B14: 12VC1(+10)-A13BeLaK-Y92K: monobody 12VC1(+10) encoding BeLaK; SEQ. ID. NO: 3 (protein)
chain: B13 chain with S24K, K30E, S42K, F51K, T60K, K68Q, S77R, S82K, K102Q
modifications: BeLaK non-natural residue at position 13; VARIANT 34 X is Ne-(tert-butoxycarbonyl) lysine or N6-(2-Oxoazetidine-1-carbonyl)-L-lysine
notes: monobody 12VC1(+10) encoding BeLaK; ID; NO: 3

Changes are numbered by the printed parent chain. In names and notes the source's numbering stands.

This experiment in a line: Intramolecular (inter-strand) crosslinking yield of nanobody/monobodies by mass spectrometry. The settings on record: UAA-encoded monobodies, MS characterization (Table 5). From the text: To probe whether CATK-1 is suitable for inter-strand cross-linking in proteins containing the disulfide bond, we selected a small protein called nanobody NB1, a prototypical single-chain VHH antibody that binds specifically to GFP protein. Based on NB1 structure, there is one disulfide bond formed between Cys-24 and Cys-98, close to a proposed orthogonal crosslinking site at Val-4 and Tyr-106 (FIG. 5a, left). To test orthogonal crosslinking, we placed CATK-1 at Val-4 position to target Tyr-106 located 5.6 Å away on the opposing strand. The BocK- and CATK-1-encoded NB1 were successfully expressed at yields of 14.3 mg L^−1 and 3.5 mg L^−1, respectively (FIG. 5b, left). […] Separately, we also examined the utility of CATK-1 in effecting intramolecular crosslinking in an antibody mimic called monobody. Due to their lack of cysteine residues, small size (˜10 kDa), and evolvable binding affinity and specificity, monobodies represent an ideal protein scaffold for targeting protein-protein interactions in the cytosols of mammalian cells. However, monobodies are cell impermeable, severely limiting their potential. One strategy to potentially overcome this limitation is to combine protein surface supercharging with orthogonal crosslinking to increase stability in the endosomes and thus improve cytosolic delivery. To this end, we designed an overall +10 charged monobody NSa1, termed NSa1(+10), using the Supercharge protocol on ROSIE Rosetta Online Server and added an amber codon at Ala-13 position. Based on the NSa1 structure, A13CATK-1 is well-positioned to react with the proximal Tyr-92 on the opposing strand at C-terminus (FIG. 5a, right). Accordingly, the wild-type and NSa1(+10) mutant proteins encoding CATK-1 or BocK were expressed and purified in good yields (4.1-6.9 mg L^1; FIG. 5b, right). […] The crosslink-containing fragment was identified by LC/MS after trypsin digestion (FIG. 21).
To assess if BeLaK is suitable for orthogonal crosslinking of domain antibodies, we selected NSa1, a monobody-based SHP2 inhibitor, and placed BeLaK at position-13 of the N-terminal β-strand. A panel of supercharged NSa1 mutants carrying overall charges of +6, +8, +11, and +18, respectively, were designed using Supercharge protocol on ROSIE Rosetta Online Server with native NSa1 (˜2 charge) as a template. […] Thus, the supercharged monobodies encoding either BeLaK or BocK were expressed in good yields (2.2˜7.2 mg L^−1; FIG. 42). […] Furthermore, as the positive charge increases, the mobility decreases, likely due to reduced overall negative charge after association with the SDS molecules. MS analysis further confirmed the identities of the supercharged NSa1 mutants (FIG. 34c). Since the unreacted BeLaK-encoded monobodies share the same mass as the crosslinked ones, we treated the purified monobodies with excess β-mercapto-ethanol for 7 days, which accelerates the hydrolysis of the unreacted β-lactam and in turn adds +18 Da to protein mass, and monitored the intact mass change. Using this method, we determined orthogonal crosslinking yields to range from 5% for native NSa1 to more than 50% for +8/+11/+18 mutants (FIG. 42). We attribute the higher yields to the increased conformational dynamics, which promotes proximity-driven crosslinking reactions. The crosslinking sites in +11 and +18 mutants were mapped to Lys-21 and Lys-19, respectively, residues on the nearby β-strand, based on the identified fragment masses after trypsin digestion (FIG. 34d, FIG. 50).
Crosslinking yield determination of BeLaK-encoded NSa1 variants. To quantify the extent of crosslinking, β-mercaptoethanol (20 mM) was added at a final concentration of 2.58 mM (100 equiv, 3 μL) to a solution of purified NSa1 variants (25 μM, 30 μL) in elution buffer (50 mM Na2HPO4, pH=7.4, 300 mM NaCl, 250 mM imidazole). The mixture was incubated at 37° C. overnight. Afterwards, the mixture was removed from the incubator and allowed to incubate at 25° C. for 1 week.
Molecule B1 yielded a X-linking yield of 22%.

In the case of B2, the X-linking yield is reported as 61%.

In turn, B3 came in with a X-linking yield of 53%.

Molecule B4 yielded a X-linking yield of 43%.

B5 showed a X-linking yield of 86%.

Turning to B6, the X-linking yield is on record as 97%.

As to B7, the X-linking yield is on record as 60%.

As to B8, the X-linking yield was 25%.

In the case of B9, the X-linking yield amounted to 87%.

B10: the X-linking yield was found to be 100%.

Regarding B11, the X-linking yield is listed as 87%.

B12 yielded a X-linking yield of 89%.

B13: the X-linking yield is 86%.

The molecule B14 showed a X-linking yield of 83%.
